We go through 1 molecule from paper PMC12804970, “Molecular basis of XPF-ERCC1 targeting to SLX4-dependent DNA repair pathways” (Nature Communications, 2025).

This assay deals with T1, His6-XPF (xeroderma pigmentosum complementation group F), wild type (human, UniProt Q92889 1-916).
T1 construct: XPF (ERCC4), human; Always co-expressed with ERCC1; also called ERCC4; XPF^WT; source: Sf9 (small-scale assays: Sf9 or Hi5), baculovirus co-expression with ERCC1; purified as complexes (Ni-NTA or Strep-Tactin, Capto HiRes Q, Superdex 200) or in insect cell lysate; not shown: His6, N-terminal, kept
As to the kind of experiment: co-purification (Strep-Tactin, ion exchange, SEC); co-infection of Sf9 with His6-XPF-ERCC1(-SLX4IP) and Twin-Strep-SLX4 fragment viruses; capture by the Twin-Strep tag on SLX4 on Strep-Tactin, 250 mM KCl, 40 mM HEPES-KOH pH 7.9, then Capto HiRes Q and Superdex 200; SDS-PAGE. The conditions noted are these: partners not purified.

B1: Twin-Strep-SLX4^330-555 (domain or fragment, human, UniProt Q8IY92 330-555, looked up)
chain: VPQIPECPICGKPFLTLKSRTSHLKQCAVKMEVGPQLLLQAVRLQTAQPEGSSSPPMFSFSDHSRGLKRRGPTSKKEPRKRRKVDEAPSEDLLVAMALSRSEMEPGAAVPALRLESAFSERIRPEAENKSRKKKPPVSPPLLLVQDSETTGRQIEDRVALLLSEEVELSSTPPLPASRILKEGWERAGQCPPPPERKQSFLWEGSALTGAWAMEDFYTARLVPPLV
notes: from clone HsCD00821809 (DNASU) in vector 438-Sn; source: Sf9 (small-scale assays: Sf9 or Hi5), baculovirus co-infection with His6-XPF-ERCC1(-SLX4IP); purified as complexes (Strep-Tactin, Capto HiRes Q, Superdex 200) or in insect cell lysate; not shown: twin-Strep, N-terminal, kept
In the case of B1, the binding result is “binds”.
